# B1: CPSF7_HUMAN (protein, UniProt Q8N684 1-471, looked up)
# Cleavage and polyadenylation …: MSEGVDLIDIYADEEFNQDPEFNNTDQIDLYDDVLTATSQPSDDRSSSTEPPPPVRQEPSPKPNNKTPAILYTYSGLRNRRAAVYVGSFSWWTTDQQLIQVIRSIGVYDVVELKFAENRANGQSKGYAEVVVASENSVHKLLELLPGKVLNGEKVDVRPATRQNLSQFEAQARKRECVRVPRGGIPPRAHSRDSSDSADGRATPSENLVPSSARVDKPPSVLPYFNRPPSALPLMGLPPPPIPPPPPLSSSFGVPPPPPGIHYQHLMPPPPRLPPHLAVPPPGAIPPALHLNPAFFPPPNATVGPPPDTYMKASAPYNHHGSRDSGPPPSTVSEAEFEDIMKRNRAISSSAISKAVSGASAGDYSDAIETLLTAIAVIKQSRVANDERCRVLISSLKDCLHGIEAKSYSVGASGSSSRKRHRSRERSPSRSRESSRRHRDLLHNEDRHDDYFQERNREHERHRDRERDRHH
# B2: PSPC1_HUMAN (protein, UniProt Q8WXF1 1-523, looked up)
# Paraspeckle component 1: MMLRGNLKQVRIEKNPARLRALESAVGESEPAAAAAMALALAGEPAPPAPAPPEDHPDEEMGFTIDIKSFLKPGEKTYTQRCRLFVGNLPTDITEEDFKRLFERYGEPSEVFINRDRGFGFIRLESRTLAEIAKAELDGTILKSRPLRIRFATHGAALTVKNLSPVVSNELLEQAFSQFGPVEKAVVVVDDRGRATGKGFVEFAAKPPARKALERCGDGAFLLTTTPRPVIVEPMEQFDDEDGLPEKLMQKTQQYHKEREQPPRFAQPGTFEFEYASRWKALDEMEKQQREQVDRNIREAKEKLEAEMEAARHEHQLMLMRQDLMRRQEELRRLEELRNQELQKRKQIQLRHEEEHRRREEEMIRHREQEELRRQQEGFKPNYMENREQEMRMGDMGPRGAINMGDAFSPAPAGNQGPPPMMGMNMNNRATIPGPPMGPGPAMGPEGAANMGTPMMPDNGAVHNDRFPQGPPSQMGSPMGSRTGSETPQAPMSGVGPVSGGPGGFGRGSQGGNFEGPNKRRRY
# B3: SF3B4_HUMAN (protein, UniProt Q15427 2-424, looked up)
# Splicing factor 3B subunit 4: AAGPISERNQDATVYVGGLDEKVSEPLLWELFLQAGPVVNTHMPKDRVTGQHQGYGFVEFLSEEDADYAIKIMNMIKLYGKPIRVNKASAHNKNLDVGANIFIGNLDPEIDEKLLYDTFSAFGVILQTPKIMRDPDTGNSKGYAFINFASFDASDAAIEAMNGQYLCNRPITVSYAFKKDSKGERHGSAAERLLAAQNPLSQADRPHQLFADAPPPPSAPNPVVSSLGSGLPPPGMPPPGSFPPPVPPPGALPPGIPPAMPPPPMPPGAAGHGPPSAGTPGAGHPGHGHSHPHPFPPGGMPHPGMSQMQLAHHGPHGLGHPHAGPPGSGGQPPPRPPPGMPHPGPPPMGMPPRGPPFGSPMGHPGPMPPHGMRGPPPLMPPHGYTGPPRPPPYGYQRGPLPPPRPTPRPPVPPRGPLRGPLPQ
# B4: SYFA_HUMAN (protein, UniProt Q9Y285 2-508, looked up)
# Phenylalanine--tRNA ligase …: ADGQVAELLLRRLEASDGGLDSAELAAELGMEHQAVVGAVKSLQALGEVIEAELRSTKHWELTAEGEEIAREGSHEARVFRSIPPEGLAQSELMRLPSGKVGFSKAMSNKWIRVDKSAADGPRVFRVVDSMEDEVQRRLQLVRGGQAEKLGEKERSELRKRKLLAEVTLKTYWVSKGSAFSTSISKQETELSPEMISSGSWRDRPFKPYNFLAHGVLPDSGHLHPLLKVRSQFRQIFLEMGFTEMPTDNFIESSFWNFDALFQPQQHPARDQHDTFFLRDPAEALQLPMDYVQRVKRTHSQGGYGSQGYKYNWKLDEARKNLLRTHTTSASARALYRLAQKKPFTPVKYFSIDRVFRNETLDATHLAEFHQIEGVVADHGLTLGHLMGVLREFFTKLGITQLRFKPAYNPYTEPSMEVFSYHQGLKKWVEVGNSGVFRPEMLLPMGLPENVSVIAWGLSLERPTMIKYGINNIRELVGHKVNLQMVYDSPLCRLDAEPRPPPTQEAA
# B5: SYCM_HUMAN (protein, UniProt Q6PI48 48-645, looked up)
# Aspartate--tRNA ligase, …: VVRTNTCGELRSSHLGQEVTLCGWIQYRRQNTFLVLRDFDGLVQVIIPQDESAASVKKILCEAPVESVVQVSGTVISRPAGQENPKMPTGEIEIKVKTAELLNACKKLPFEIKNFVKKTEALRLQYRYLDLRSFQMQYNLRLRSQMVMKMREYLCNLHGFVDIETPTLFKRTPGGAKEFLVPSREPGKFYSLPQSPQQFKQLLMVGGLDRYFQVARCYRDEGSRPDRQPEFTQIDIEMSFVDQTGIQSLIEGLLQYSWPNDKDPVVVPFPTMTFAEVLATYGTDKPDTRFGMKIIDISDVFRNTEIGFLQDALSKPHGTVKAICIPEGAKYLKRKDIESIRNFAADHFNQEILPVFLNANRNWNSPVANFIMESQRLELIRLMETQEEDVVLLTAGEHNKACSLLGKLRLECADLLETRGVVLRDPTLFSFLWVVDFPLFLPKEENPRELESAHHPFTAPHPSDIHLLYTEPKKARSQHYDLVLNGNEIGGGSIRIHNAELQRYILATLLKEDVKMLSHLLQALDYGAPPHGGIALGLDRLICLVTGSPSIRDVIAFPKSFRGHDLMSNTPDSVPPEELKPYHIRVSKPTDSKAERAH
# B6: CLPB_HUMAN (protein, UniProt Q9H078 37-707, looked up)
# Mitochondrial disaggregase: VTTGSLGEPQWLRVATGGRPGTSPALFSGRGAATGGRQGGRFDTKCLAAATWGRLPGPEETLPGQDSWNGVPSRAGLGMCALAAALVVHCYSKSPSNKDAALLEAARANNMQEVSRLLSEGADVNAKHRLGWTALMVAAINRNNSVVQVLLAAGADPNLGDDFSSVYKTAKEQGIHSLEDGGQDGASRHITNQWTSALEFRRWLGLPAGVLITREDDFNNRLNNRASFKGCTALHYAVLADDYRTVKELLDGGANPLQRNEMGHTPLDYAREGEVMKLLRTSEAKYQEKQRKREAEERRRFPLEQRLKEHIIGQESAIATVGAAIRRKENGWYDEEHPLVFLFLGSSGIGKTELAKQTAKYMHKDAKKGFIRLDMSEFQERHEVAKFIGSPPGYVGHEEGGQLTKKLKQCPNAVVLFDEVDKAHPDVLTIMLQLFDEGRLTDGKGKTIDCKDAIFIMTSNVASDEIAQHALQLRQEALEMSRNRIAENLGDVQISDKITISKNFKENVIRPILKAHFRRDEFLGRINEIVYFLPFCHSELIQLVNKELNFWAKRAKQRHNITLLWDREVADVLVDGYNVHYGARSIKHEVERRVVNQLAAAYEQDLLPGGCTLRITVEDSDKQLLKSPELPSPQAEKRLPKLRLEIIDKDSKTRRLDIRAPLHPEKVCNTI
# B7: TCPB_HUMAN (protein, UniProt P78371 2-535, looked up)
# T-complex protein 1 subunit …: ASLSLAPVNIFKAGADEERAETARLTSFIGAIAIGDLVKSTLGPKGMDKILLSSGRDASLMVTNDGATILKNIGVDNPAAKVLVDMSRVQDDEVGDGTTSVTVLAAELLREAESLIAKKIHPQTIIAGWREATKAAREALLSSAVDHGSDEVKFRQDLMNIAGTTLSSKLLTHHKDHFTKLAVEAVLRLKGSGNLEAIHIIKKLGGSLADSYLDEGFLLDKKIGVNQPKRIENAKILIANTGMDTDKIKIFGSRVRVDSTAKVAEIEHAEKEKMKEKVERILKHGINCFINRQLIYNYPEQLFGAAGVMAIEHADFAGVERLALVTGGEIASTFDHPELVKLGSCKLIEEVMIGEDKLIHFSGVALGEACTIVLRGATQQILDEAERSLHDALCVLAQTVKDSRTVYGGGCSEMLMAHAVTQLANRTPGKEAVAMESYAKALRMLPTIIADNAGYDSADLVAQLRAAHSEGNTTAGLDMREGTIGDMAILGITESFQVKRQVLLSAAEAAEVILRVDNIIKAAPRKRVPDHHPC
# B8: SF3A3_HUMAN (protein, UniProt Q12874 1-501, looked up)
# Splicing factor 3A subunit 3: METILEQQRRYHEEKERLMDVMAKEMLTKKSTLRDQINSDHRTRAMQDRYMEVSGNLRDLYDDKDGLRKEELNAISGPNEFAEFYNRLKQIKEFHRKHPNEICVPMSVEFEELLKARENPSEEAQNLVEFTDEEGYGRYLDLHDCYLKYINLKASEKLDYITYLSIFDQLFDIPKERKNAEYKRYLEMLLEYLQDYTDRVKPLQDQNELFGKIQAEFEKKWENGTFPGWPKETSSALTHAGAHLDLSAFSSWEELASLGLDRLKSALLALGLKCGGTLEERAQRLFSTKGKSLESLDTSLFAKNPKSKGTKRDTERNKDIAFLEAQIYEYVEILGEQRHLTHENVQRKQARTGEEREEEEEEQISESESEDEENEIIYNPKNLPLGWDGKPIPYWLYKLHGLNINYNCEICGNYTYRGPKAFQRHFAEWRHAHGMRCLGIPNTAHFANVTQIEDAVSLWAKLKLQKASERWQPDTEEEYEDSSGNVVNKKTYEDLKRQGLL
# B9: CACP_HUMAN (protein, UniProt P43155 1-626, looked up)
# Carnitine O-acetyltransferase: MLAFAARTVVKPLGFLKPFSLMKASSRFKAHQDALPRLPVPPLQQSLDHYLKALQPIVSEEEWAHTKQLVDEFQASGGVGERLQKGLERRARKTENWLSEWWLKTAYLQYRQPVVIYSSPGVMLPKQDFVDLQGQLRFAAKLIEGVLDFKVMIDNETLPVEYLGGKPLCMNQYYQILSSCRVPGPKQDTVSNFSKTKKPPTHITVVHNYQFFELDVYHSDGTPLTADQIFVQLEKIWNSSLQTNKEPVGILTSNHRNSWAKAYNTLIKDKVNRDSVRSIQKSIFTVCLDATMPRVSEDVYRSHVAGQMLHGGGSRLNSGNRWFDKTLQFIVAEDGSCGLVYEHAAAEGPPIVTLLDYVIEYTKKPELVRSPLVPLPMPKKLRFNITPEIKSDIEKAKQNLSIMIQDLDITVMVFHHFGKDFPKSEKLSPDAFIQMALQLAYYRIYGQACATYESASLRMFHLGRTDTIRSASMDSLTFVKAMDDSSVTEHQKVELLRKAVQAHRGYTDRAIRGEAFDRHLLGLKLQAIEDLVSMPDIFMDTSYAIAMHFHLSTSQVPAKTDCVMFFGPVVPDGYGVCYNPMEAHINFSLSAYNSCAETNAARLAHYLEKALLDMRALLQSHPRAKL
# B10: HNRPR_HUMAN (protein, UniProt O43390 2-633, looked up)
# Heterogeneous nuclear …: ANQVNGNAVQLKEEEEPMDTSSVTHTEHYKTLIEAGLPQKVAERLDEIFQTGLVAYVDLDERAIDALREFNEEGALSVLQQFKESDLSHVQNKSAFLCGVMKTYRQREKQGSKVQESTKGPDEAKIKALLERTGYTLDVTTGQRKYGGPPPDSVYSGVQPGIGTEVFVGKIPRDLYEDELVPLFEKAGPIWDLRLMMDPLSGQNRGYAFITFCGKEAAQEAVKLCDSYEIRPGKHLGVCISVANNRLFVGSIPKNKTKENILEEFSKVTEGLVDVILYHQPDDKKKNRGFCFLEYEDHKSAAQARRRLMSGKVKVWGNVVTVEWADPVEEPDPEVMAKVKVLFVRNLATTVTEEILEKSFSEFGKLERVKKLKDYAFVHFEDRGAAVKAMDEMNGKEIEGEEIEIVLAKPPDKKRKERQAARQASRSTAYEDYYYHPPPRMPPPIRGRGRGGGRGGYGYPPDYYGYEDYYDDYYGYDYHDYRGGYEDPYYGYDDGYAVRGRGGGRGGRGAPPPPRGRGAPPPRGRAGYSQRGAPLGPPRGSRGGRGGPAQQQRGRGSRGSRGNRGGNVGGKRKADGYNQPDSKRRQTNNQQNWGSQPIAQQPLQQGGDYSGNYGYNNDNQEFYQDTYGQQWK
# System: KDM4A-I71AzF
# Assay: CASI: photo-crosslinking with HEK293T cell extracts, StrepTactin enrichment and LC-MS/MS proteomics;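 note: lysates from HEK293T cells pretreated with a KDM4 inhibitor to raise proteome methylation, affinity-purified after ±UV, gel-resolved, trypsin-digested, with exclusive unique peptides per protein averaged per condition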
# Assay type: binding, human
# Conditions: sheet "Final results but with 0.01"
row,Molecule,Fold change (+UV/-UV)
1,B1,1
2,B2,1.667
3,B3,0.75
4,B4,4
5,B5,1
6,B6,2
7,B7,1
8,B8,2
9,B9,0
10,B10,2

# Reference: publication PMC10540216, “Activity Guided Azide-methyllysine Photo-trapping for Substrate Profiling of Lysine Demethylases” (Journal of the American Chemical Society, 2023)
